The values that follow come from doi:10.1101/2025.08.22.671756, “Structural basis of Drosophila insulin receptor activation by DILP2 hormone” (bioRxiv, 2025).

The data set deals with the molecule itself. Nature of the data set: cryo-EM structure; dmIR-ECD 0.2 mg/ml in SEC buffer (25 mM HEPES pH 8.0, 200 mM NaCl) incubated with 40-fold molar excess of DILP2 at room temperature for 30 min; two conformers from subsets of the particles (3.75 Å and 6.25 Å maps).

B1: Drosophila melanogaster insulin receptor ectodomain (dmIR-ECD) (domain or fragment, UniProt P09208 291-1309, looked up)
chain: LPAHQQHLLHNDIADGLDKTALSVSGTQSRWTRSESNPTMRLSQNVKPCKSMDIRNMVSHFNQLENCTVIEGFLLIDLINDASPLNRSFPKLTEVTDYIIIYRVTGLHSLSKIFPNLSVIRGNKLFDGYALVVYSNFDLMDLGLHKLRSITRGGVRIEKNHKLCYDRTIDWLEILAENETQLVVLTENGKEKECRLSKCPGEIRIEEGHDTTAIEGELNASCQLHNNRRLCWNSKLCQTKCPEKCRNNCIDEHTCCSQDCLGGCVIDKNGNESCISCRNVSFNNICMDSCPKGYYQFDSRCVTANECITLTKFETNSVYSGIPYNGQCITHCPTGYQKSENKRMCEPCPGGKCDKECSSGLIDSLERAREFHGCTIITGTEPLTISIKRESGAHVMDELKYGLAAVHKIQSSLMVHLTYGLKSLKFFQSLTEISGDPPMDADKYALYVLDNRDLDELWGPNQTVFIRKGGVFFHFNPKLCVSTINQLLPMLASKPKFFEKSDVGADSNGNRGSCGTAVLNVTLQSVGANSAMLNVTTKVEIGEPQKPSNATIVFKDPRAFIGFVFYHMIDPYGNSTKSSDDPCDDRWKVSSPEKSGVMVLSNLIPYTNYSYYVRTMAISSELTNAESDVKNFRTNPGRPSKVTEVVATAISDSKINVTWSYLDKPYGVLTRYFIKAKLINRPTRNNNRDYCTEPLVKAMENDLPATTPTKKISDPLAGDCKCVEGSKKTSSQEYDDRKVQAGMEFENALQNFIFVPNIRKSKNGSSDKSDGAEGAALDSNAIPNGGATNPSRRRRDVALEPELDDVEGSVLLRHVRSITDDTDAFFEKDDENTYKDEEDLSSNKQFYEVFAKELPPNQTHFVFEKLRHFTRYAIFVVACREEIPSEKLRDTSFKKSLCSDYDTVFQTTKRKKFADIVMDLKVDLEHANNTESPVRVRWTPPVDPNGEIVTYEVAYKLQKPDQVEEKKCIPAADFNQTAGYLIKLNEGLYSFRVRANSIAGYGDFTEVEHIKVEPPPSYA
notes: Insulin receptor (dmIR), Drosophila melanogaster, ectodomain; Expressed from codon-optimised DNA for residues 264-1309 with an added start codon; the results name the construct 291Leu-1309Ala; Described as an (αβ)2 homodimer; N-glycans are visible in the maps; also called dmIR ectodomain; 291Leu-1309Ala dmIR-ECD construct; source: Sf9 (ExpiSf9) cells, baculovirus, conditioned media, purified …
Regarding B1, the binding result is listed as “binds”.
